Laboratory results published in article PMC11573651.

Target: His-NifH^RS (Roseiflexus sp. RS-1 dinitrogenase reductase NifH) (Roseiflexus sp. RS-1)
Assay: not stated; molecular size and quaternary structure of the purified protein (Table 1); the method is in SI Appendix Figs. S8, S9, S14 and S15

## His-NifH^RS (Roseiflexus sp. RS-1 dinitrogenase reductase NifH) (natural protein)
  stoichiometry N: 2
